Data reported in patent US20140087995A1 (published 2014).
Numbered stars: 1 amine (or outer) side, 2 acyl side, 3 side chain; on linkers, the order of the positions; unused ones are H or OH. Bridge positions count the residues as written; N and C are the ends. Side chains are listed from the residue outwards. Ends that are not written are not given here. * marks the point of attachment. C20 diacid = O=C(O)CCCCCCCCCCCCCCCCCCC(=O)*; γGlu = O=C(O)[C@H](CCC(=O)[*:2])N[*:1]

T1: human calcitonin receptor (human, UniProt P30988 25-474)
T1 sequence (looked up): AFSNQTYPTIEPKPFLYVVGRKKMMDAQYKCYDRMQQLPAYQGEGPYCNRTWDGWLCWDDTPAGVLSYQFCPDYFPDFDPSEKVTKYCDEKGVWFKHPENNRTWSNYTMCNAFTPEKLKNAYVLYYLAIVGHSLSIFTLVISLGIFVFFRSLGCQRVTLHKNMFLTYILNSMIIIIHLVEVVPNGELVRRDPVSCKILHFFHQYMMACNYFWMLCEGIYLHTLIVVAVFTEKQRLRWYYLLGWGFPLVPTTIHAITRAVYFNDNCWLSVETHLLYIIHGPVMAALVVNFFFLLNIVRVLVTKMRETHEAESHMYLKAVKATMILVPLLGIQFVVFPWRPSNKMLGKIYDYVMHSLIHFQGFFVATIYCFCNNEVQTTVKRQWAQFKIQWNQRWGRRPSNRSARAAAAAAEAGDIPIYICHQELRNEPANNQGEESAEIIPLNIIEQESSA

T2: human amylin receptor (amylin 3(a) receptor: human calcitonin receptor plus RAMP-3) (human, UniProt P30988 25-474; O60896 24-148, limits assumed)
T2 sequence (looked up) 1: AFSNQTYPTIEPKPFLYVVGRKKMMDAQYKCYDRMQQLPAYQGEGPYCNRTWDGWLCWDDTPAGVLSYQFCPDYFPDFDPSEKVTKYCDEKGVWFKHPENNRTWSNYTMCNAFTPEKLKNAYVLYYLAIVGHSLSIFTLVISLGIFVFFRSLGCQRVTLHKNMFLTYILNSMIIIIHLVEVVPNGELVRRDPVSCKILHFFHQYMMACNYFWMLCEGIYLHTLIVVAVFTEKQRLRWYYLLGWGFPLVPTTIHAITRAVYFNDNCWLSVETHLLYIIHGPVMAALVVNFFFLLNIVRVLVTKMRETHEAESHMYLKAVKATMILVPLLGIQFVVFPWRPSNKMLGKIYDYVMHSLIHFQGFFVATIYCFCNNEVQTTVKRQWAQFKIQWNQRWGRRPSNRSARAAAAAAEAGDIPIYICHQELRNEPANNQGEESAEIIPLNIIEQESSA
T2 sequence (looked up) 2: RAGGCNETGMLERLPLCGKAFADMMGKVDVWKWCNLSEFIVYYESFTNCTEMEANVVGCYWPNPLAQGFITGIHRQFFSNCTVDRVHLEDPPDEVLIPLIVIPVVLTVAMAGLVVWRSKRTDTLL


Tests used:
[1] = molecular target: T1, human calcitonin receptor; assay: cell-based or functional assay
[2] = molecular target: T2, human amylin receptor (amylin 3(a) …); assay: cell-based or functional assay

| Ratio hCT/hAmylin funct. (hCTR EC50 against hAmylin-R EC50) [1] | hCTR funct. EC50 [1] [pM] | hAmylin-R funct. EC50 [2] [pM] | Binder |
| --- | --- | --- | --- |
| 24 | 4750 | 198 | K([γGlu-C20 diacid])RCNTATCATQRLANFLRHSSPNFGAIPSSTNVGSHTY-NH2 (disulfide 3-8; N-terminus assumed; SMILES CC[C@H](C)[C@H](NC(=O)[C@H](C)NC(=O)CNC(=O)[C@H](Cc1ccccc1)NC(=O)[C@H](CC(N)=O)NC(=O)[C@@H]1CCCN1C(=O)[C@H](CO)NC(=O)[C@H](CO)NC(=O)[C@H](Cc1c[nH]cn1)NC(=O)[C@H](CCCNC(=N)N)NC(=O)[C@H](CC(C)C)NC(=O)[C@H](Cc1ccccc1)NC(=O)[C@H](CC(N)=O)NC(=O)[C@H](C)NC(=O)[C@H](CC(C)C)NC(=O)[C@H](CCCNC(=N)N)NC(=O)[C@H](CCC(N)=O)NC(=O)[C@@H](NC(=O)[C@H](C)NC(=O)[C@@H]1CSSC[C@H](NC(=O)[C@H](CCCNC(=N)N)NC(=O)[C@@H](N)CCCCNC(=O)CC[C@H](NC(=O)CCCCCCCCCCCCCCCCCCC(=O)O)C(=O)O)C(=O)N[C@@H](CC(N)=O)C(=O)N[C@@H]([C@@H](C)O)C(=O)N[C@@H](C)C(=O)N[C@@H]([C@@H](C)O)C(=O)N1)[C@@H](C)O)C(=O)N1CCC[C@H]1C(=O)N[C@@H](CO)C(=O)N[C@@H](CO)C(=O)N[C@H](C(=O)N[C@@H](CC(N)=O)C(=O)N[C@H](C(=O)NCC(=O)N[C@@H](CO)C(=O)N[C@@H](Cc1c[nH]cn1)C(=O)N[C@H](C(=O)N[C@@H](Cc1ccc(O)cc1)C(N)=O)[C@@H](C)O)C(C)C)[C@@H](C)O, also called compound 44) |
| 10.2 | 899 | 88 | {C20 diacid-γGlu}-GRCNTATCATQRLANFLRHSSPNFGAIPSSTNVGSNTY-NH2 (disulfide 3-8; SMILES CC[C@H](C)[C@H](NC(=O)[C@H](C)NC(=O)CNC(=O)[C@H](Cc1ccccc1)NC(=O)[C@H](CC(N)=O)NC(=O)[C@@H]1CCCN1C(=O)[C@H](CO)NC(=O)[C@H](CO)NC(=O)[C@H](Cc1c[nH]cn1)NC(=O)[C@H](CCCNC(=N)N)NC(=O)[C@H](CC(C)C)NC(=O)[C@H](Cc1ccccc1)NC(=O)[C@H](CC(N)=O)NC(=O)[C@H](C)NC(=O)[C@H](CC(C)C)NC(=O)[C@H](CCCNC(=N)N)NC(=O)[C@H](CCC(N)=O)NC(=O)[C@@H](NC(=O)[C@H](C)NC(=O)[C@@H]1CSSC[C@H](NC(=O)[C@H](CCCNC(=N)N)NC(=O)CNC(=O)CC[C@H](NC(=O)CCCCCCCCCCCCCCCCCCC(=O)O)C(=O)O)C(=O)N[C@@H](CC(N)=O)C(=O)N[C@@H]([C@@H](C)O)C(=O)N[C@@H](C)C(=O)N[C@@H]([C@@H](C)O)C(=O)N1)[C@@H](C)O)C(=O)N1CCC[C@H]1C(=O)N[C@@H](CO)C(=O)N[C@@H](CO)C(=O)N[C@H](C(=O)N[C@@H](CC(N)=O)C(=O)N[C@H](C(=O)NCC(=O)N[C@@H](CO)C(=O)N[C@@H](CC(N)=O)C(=O)N[C@H](C(=O)N[C@@H](Cc1ccc(O)cc1)C(N)=O)[C@@H](C)O)C(C)C)[C@@H](C)O, also called compound 46) [N^-1-[(4S)-4-carboxy-4-(19-carboxynonadecanoylamino)butanoyl]-Gly[Arg1,Arg17,Pro21,Pro27]-h-amylin] |
| 17.4 | 5320 | 307 | KCNTATCATQRLAEFLRHSSPNFGAIPSSTNVGSNTY (C20 diacid-gGlu-2xOEG on the alpha amino group of the N-terminal residue; Cys2-Cys7 disulfide and C-terminal amide as in human amylin, also called compound 19) |
| 22.6 | 3000 | 133 | K([γGlu-C20 diacid])CNTATCATQRLANFLRHSSPNFGAIPSSTNVGSETY-NH2 (disulfide 2-7; N-terminus assumed; SMILES CC[C@H](C)[C@H](NC(=O)[C@H](C)NC(=O)CNC(=O)[C@H](Cc1ccccc1)NC(=O)[C@H](CC(N)=O)NC(=O)[C@@H]1CCCN1C(=O)[C@H](CO)NC(=O)[C@H](CO)NC(=O)[C@H](Cc1c[nH]cn1)NC(=O)[C@H](CCCNC(=N)N)NC(=O)[C@H](CC(C)C)NC(=O)[C@H](Cc1ccccc1)NC(=O)[C@H](CC(N)=O)NC(=O)[C@H](C)NC(=O)[C@H](CC(C)C)NC(=O)[C@H](CCCNC(=N)N)NC(=O)[C@H](CCC(N)=O)NC(=O)[C@@H](NC(=O)[C@H](C)NC(=O)[C@@H]1CSSC[C@H](NC(=O)[C@@H](N)CCCCNC(=O)CC[C@H](NC(=O)CCCCCCCCCCCCCCCCCCC(=O)O)C(=O)O)C(=O)N[C@@H](CC(N)=O)C(=O)N[C@@H]([C@@H](C)O)C(=O)N[C@@H](C)C(=O)N[C@@H]([C@@H](C)O)C(=O)N1)[C@@H](C)O)C(=O)N1CCC[C@H]1C(=O)N[C@@H](CO)C(=O)N[C@@H](CO)C(=O)N[C@H](C(=O)N[C@@H](CC(N)=O)C(=O)N[C@H](C(=O)NCC(=O)N[C@@H](CO)C(=O)N[C@@H](CCC(=O)O)C(=O)N[C@H](C(=O)N[C@@H](Cc1ccc(O)cc1)C(N)=O)[C@@H](C)O)C(C)C)[C@@H](C)O, also called compound 27) [N^ε1-[(4S)-4-carboxy-4-(19-carboxynonadecanoylamino)butanoyl]-[Arg17,Pro21,Pro27,Glu35]-h-amylin] |
| 6.8 | 1280 | 189 | {C20 diacid-γGlu}-KCNTATCATQRLAEFLRHSSPNFGAIPSSTNVGKNTY-NH2 (disulfide 2-7; SMILES CC[C@H](C)[C@H](NC(=O)[C@H](C)NC(=O)CNC(=O)[C@H](Cc1ccccc1)NC(=O)[C@H](CC(N)=O)NC(=O)[C@@H]1CCCN1C(=O)[C@H](CO)NC(=O)[C@H](CO)NC(=O)[C@H](Cc1c[nH]cn1)NC(=O)[C@H](CCCNC(=N)N)NC(=O)[C@H](CC(C)C)NC(=O)[C@H](Cc1ccccc1)NC(=O)[C@H](CCC(=O)O)NC(=O)[C@H](C)NC(=O)[C@H](CC(C)C)NC(=O)[C@H](CCCNC(=N)N)NC(=O)[C@H](CCC(N)=O)NC(=O)[C@@H](NC(=O)[C@H](C)NC(=O)[C@@H]1CSSC[C@H](NC(=O)[C@H](CCCCN)NC(=O)CC[C@H](NC(=O)CCCCCCCCCCCCCCCCCCC(=O)O)C(=O)O)C(=O)N[C@@H](CC(N)=O)C(=O)N[C@@H]([C@@H](C)O)C(=O)N[C@@H](C)C(=O)N[C@@H]([C@@H](C)O)C(=O)N1)[C@@H](C)O)C(=O)N1CCC[C@H]1C(=O)N[C@@H](CO)C(=O)N[C@@H](CO)C(=O)N[C@H](C(=O)N[C@@H](CC(N)=O)C(=O)N[C@H](C(=O)NCC(=O)N[C@@H](CCCCN)C(=O)N[C@@H](CC(N)=O)C(=O)N[C@H](C(=O)N[C@@H](Cc1ccc(O)cc1)C(N)=O)[C@@H](C)O)C(C)C)[C@@H](C)O, also called compound 36) |
| 15 | 5460 | 364 | K([γGlu-C20 diacid])CNTATCATQRLANFLRHSSPNFGAIPSSTNVGSKTY-NH2 (disulfide 2-7; N-terminus assumed; SMILES CC[C@H](C)[C@H](NC(=O)[C@H](C)NC(=O)CNC(=O)[C@H](Cc1ccccc1)NC(=O)[C@H](CC(N)=O)NC(=O)[C@@H]1CCCN1C(=O)[C@H](CO)NC(=O)[C@H](CO)NC(=O)[C@H](Cc1c[nH]cn1)NC(=O)[C@H](CCCNC(=N)N)NC(=O)[C@H](CC(C)C)NC(=O)[C@H](Cc1ccccc1)NC(=O)[C@H](CC(N)=O)NC(=O)[C@H](C)NC(=O)[C@H](CC(C)C)NC(=O)[C@H](CCCNC(=N)N)NC(=O)[C@H](CCC(N)=O)NC(=O)[C@@H](NC(=O)[C@H](C)NC(=O)[C@@H]1CSSC[C@H](NC(=O)[C@@H](N)CCCCNC(=O)CC[C@H](NC(=O)CCCCCCCCCCCCCCCCCCC(=O)O)C(=O)O)C(=O)N[C@@H](CC(N)=O)C(=O)N[C@@H]([C@@H](C)O)C(=O)N[C@@H](C)C(=O)N[C@@H]([C@@H](C)O)C(=O)N1)[C@@H](C)O)C(=O)N1CCC[C@H]1C(=O)N[C@@H](CO)C(=O)N[C@@H](CO)C(=O)N[C@H](C(=O)N[C@@H](CC(N)=O)C(=O)N[C@H](C(=O)NCC(=O)N[C@@H](CO)C(=O)N[C@@H](CCCCN)C(=O)N[C@H](C(=O)N[C@@H](Cc1ccc(O)cc1)C(N)=O)[C@@H](C)O)C(C)C)[C@@H](C)O, also called compound 35) [N^ε1-[(4S)-4-carboxy-4-(19-carboxynonadecanoylamino)butanoyl]-[Arg17,Pro21,Pro27,Lys35]-h-amylin] |
| 16.4 | 3000 | 182 | K([γGlu-γGlu-C20 diacid])CNTATCATQRLADFLRHSSPNFGAIPSSTNVGSDTY-NH2 (disulfide 2-7; N-terminus assumed; SMILES CC[C@H](C)[C@H](NC(=O)[C@H](C)NC(=O)CNC(=O)[C@H](Cc1ccccc1)NC(=O)[C@H](CC(N)=O)NC(=O)[C@@H]1CCCN1C(=O)[C@H](CO)NC(=O)[C@H](CO)NC(=O)[C@H](Cc1c[nH]cn1)NC(=O)[C@H](CCCNC(=N)N)NC(=O)[C@H](CC(C)C)NC(=O)[C@H](Cc1ccccc1)NC(=O)[C@H](CC(=O)O)NC(=O)[C@H](C)NC(=O)[C@H](CC(C)C)NC(=O)[C@H](CCCNC(=N)N)NC(=O)[C@H](CCC(N)=O)NC(=O)[C@@H](NC(=O)[C@H](C)NC(=O)[C@@H]1CSSC[C@H](NC(=O)[C@@H](N)CCCCNC(=O)CC[C@H](NC(=O)CC[C@H](NC(=O)CCCCCCCCCCCCCCCCCCC(=O)O)C(=O)O)C(=O)O)C(=O)N[C@@H](CC(N)=O)C(=O)N[C@@H]([C@@H](C)O)C(=O)N[C@@H](C)C(=O)N[C@@H]([C@@H](C)O)C(=O)N1)[C@@H](C)O)C(=O)N1CCC[C@H]1C(=O)N[C@@H](CO)C(=O)N[C@@H](CO)C(=O)N[C@H](C(=O)N[C@@H](CC(N)=O)C(=O)N[C@H](C(=O)NCC(=O)N[C@@H](CO)C(=O)N[C@@H](CC(=O)O)C(=O)N[C@H](C(=O)N[C@@H](Cc1ccc(O)cc1)C(N)=O)[C@@H](C)O)C(C)C)[C@@H](C)O, also called compound 2) |
